Data as given in patent US20170022281A1 (AbbVie / Abbott, published 2017).

T1: human PRLR (Biacore antigen) (human, UniProt P16471 25-234, limits assumed)
T1 construct: The construct injected over captured antibody is not described (a soluble form is likely); also called huPRLR
T1 sequence: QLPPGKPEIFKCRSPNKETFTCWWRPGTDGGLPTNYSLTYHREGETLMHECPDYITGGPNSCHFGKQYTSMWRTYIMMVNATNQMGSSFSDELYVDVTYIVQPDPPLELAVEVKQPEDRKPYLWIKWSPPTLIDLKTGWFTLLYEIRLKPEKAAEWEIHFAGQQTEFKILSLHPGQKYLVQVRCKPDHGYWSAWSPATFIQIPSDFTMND

T2: cyno PRLR (Biacore antigen) (cyno, UniProt A0A2K5WXK1 25-234)
T2 construct: also called cyPRLR
T2 sequence: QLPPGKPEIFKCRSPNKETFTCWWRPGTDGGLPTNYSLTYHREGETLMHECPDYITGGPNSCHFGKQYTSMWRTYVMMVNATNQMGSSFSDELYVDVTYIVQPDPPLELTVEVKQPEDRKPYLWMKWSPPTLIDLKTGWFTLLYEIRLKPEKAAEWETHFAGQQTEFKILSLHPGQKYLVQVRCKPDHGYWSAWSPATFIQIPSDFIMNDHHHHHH

T3: murine PRLR (Biacore antigen) (murine, UniProt Q08501 20-229, limits assumed)
T3 construct: also called muPRLR
T3 sequence (looked up): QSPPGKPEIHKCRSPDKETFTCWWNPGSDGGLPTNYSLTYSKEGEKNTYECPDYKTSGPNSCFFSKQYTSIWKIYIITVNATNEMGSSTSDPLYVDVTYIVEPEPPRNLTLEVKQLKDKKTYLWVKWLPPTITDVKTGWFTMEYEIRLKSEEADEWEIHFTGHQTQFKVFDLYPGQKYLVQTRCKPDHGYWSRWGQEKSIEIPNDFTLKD

T4: cyno PRLR ECD-his6 protein (cyno)
T4 chain: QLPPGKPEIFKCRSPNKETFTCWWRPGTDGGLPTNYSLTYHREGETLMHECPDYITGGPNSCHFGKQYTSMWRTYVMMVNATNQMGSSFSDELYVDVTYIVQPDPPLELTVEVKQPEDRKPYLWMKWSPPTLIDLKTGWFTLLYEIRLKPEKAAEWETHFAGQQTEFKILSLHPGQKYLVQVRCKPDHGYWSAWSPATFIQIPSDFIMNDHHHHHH

T5: human PRLR ECD-Fc fusion protein (human, UniProt P16471 25-233)
T5 construct: not shown: Fc region (captured by goat anti-human Fc)
T5 sequence: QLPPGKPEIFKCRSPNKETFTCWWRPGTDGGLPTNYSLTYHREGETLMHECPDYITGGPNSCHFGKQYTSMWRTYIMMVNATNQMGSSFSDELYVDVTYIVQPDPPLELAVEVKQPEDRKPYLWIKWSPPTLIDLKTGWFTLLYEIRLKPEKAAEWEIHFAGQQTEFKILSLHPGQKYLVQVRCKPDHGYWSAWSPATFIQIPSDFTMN

T6: mouse PRLR on Baf3-mPRLR cells (mouse, UniProt Q08501 20-608)
T6 sequence (looked up): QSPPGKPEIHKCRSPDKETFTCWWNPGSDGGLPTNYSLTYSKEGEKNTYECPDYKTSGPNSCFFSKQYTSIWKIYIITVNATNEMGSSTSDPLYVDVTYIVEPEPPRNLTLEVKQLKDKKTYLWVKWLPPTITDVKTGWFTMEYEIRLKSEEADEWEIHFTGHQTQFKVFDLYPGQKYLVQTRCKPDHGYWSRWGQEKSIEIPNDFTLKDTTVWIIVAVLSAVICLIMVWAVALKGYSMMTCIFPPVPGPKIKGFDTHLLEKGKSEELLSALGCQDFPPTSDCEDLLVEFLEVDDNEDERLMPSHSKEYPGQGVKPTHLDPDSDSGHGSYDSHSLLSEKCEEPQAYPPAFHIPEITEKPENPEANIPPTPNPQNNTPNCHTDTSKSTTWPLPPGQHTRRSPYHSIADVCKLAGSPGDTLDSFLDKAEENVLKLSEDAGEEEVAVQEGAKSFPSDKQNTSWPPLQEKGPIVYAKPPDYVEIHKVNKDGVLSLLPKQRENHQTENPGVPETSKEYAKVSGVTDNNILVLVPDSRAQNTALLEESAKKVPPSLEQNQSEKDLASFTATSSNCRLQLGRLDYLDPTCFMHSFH

T7: human PRLR on cells (human, UniProt P16471 25-622)
T7 sequence: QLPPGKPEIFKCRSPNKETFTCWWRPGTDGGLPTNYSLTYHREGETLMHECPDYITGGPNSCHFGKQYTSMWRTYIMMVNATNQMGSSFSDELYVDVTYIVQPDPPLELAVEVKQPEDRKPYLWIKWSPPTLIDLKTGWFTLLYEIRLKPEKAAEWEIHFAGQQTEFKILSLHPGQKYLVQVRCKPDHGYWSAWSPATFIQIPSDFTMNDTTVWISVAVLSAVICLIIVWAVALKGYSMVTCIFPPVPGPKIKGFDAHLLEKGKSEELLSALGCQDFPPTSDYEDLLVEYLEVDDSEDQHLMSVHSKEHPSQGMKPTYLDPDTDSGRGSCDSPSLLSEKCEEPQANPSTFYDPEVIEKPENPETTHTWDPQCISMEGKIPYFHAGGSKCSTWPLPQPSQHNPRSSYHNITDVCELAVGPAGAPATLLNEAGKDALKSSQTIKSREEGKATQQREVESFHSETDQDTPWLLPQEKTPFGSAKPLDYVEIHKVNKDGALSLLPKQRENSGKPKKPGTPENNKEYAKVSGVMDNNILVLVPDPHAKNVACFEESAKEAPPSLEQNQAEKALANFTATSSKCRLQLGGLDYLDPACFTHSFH

T8: mouse PRLR ECD-Fc fusion protein (mouse, UniProt Q08501 20-229)
T8 construct: extracellular domain; not shown: Fc region (captured by goat anti-human Fc)
T8 sequence (looked up): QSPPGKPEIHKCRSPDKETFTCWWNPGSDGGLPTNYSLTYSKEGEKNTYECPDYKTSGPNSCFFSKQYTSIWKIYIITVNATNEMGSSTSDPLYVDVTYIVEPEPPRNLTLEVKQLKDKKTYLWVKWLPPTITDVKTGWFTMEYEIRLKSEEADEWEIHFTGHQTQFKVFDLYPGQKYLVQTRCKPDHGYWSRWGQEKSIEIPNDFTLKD


Key:
[1] = molecular target: T1, human PRLR (Biacore antigen); experiment: SPR Biacore
Procedure, shortened: (§1)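 Association rate, dissociation rate and dissociation constant were measured by surface plasmon resonance on a Biacore instrument. PRLR antigen was tested at 600 nM, 66.67 nM and 7.41 nM, a 3-point, 9-fold dilution series. Constants came from a 1:1 binding model fit (local Rmax, mass-transport term included) in Biacore T200 Evaluation Software.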

[2] = molecular target: T2, cyno PRLR (Biacore antigen); experiment: SPR Biacore
Procedure, shortened: as §1

[3] = molecular target: T3, murine PRLR (Biacore antigen); experiment: SPR Biacore
Procedure, shortened: as §1

[4] = molecular target: T4, cyno PRLR ECD-his6 protein; experiment: ELISA on ECD
Procedure: (§2) Plates were blocked for 1 hour with Superblock (Pierce) and washed (3×) with wash buffer (lx PBS (pH 7.4), 0.05% Tween 20). ECD proteins were bound to the appropriate antibody (1 hour) in binding buffer (wash buffer plus 10% Superblock), washed (3×, wash buffer), and then incubated with serial dilutions of antibodies (1 hour) in binding buffer. After washing (3×, wash buffer), secondary antibodies conjugated to HRP were bound (1 hour) in binding buffer, washed (3×, wash buffer), and incubated with TMB substrate (Pierce) to develop signal for 3-5 minutes, stopped with 2N H₂SO₄ and scanned at […]. Curves were fit with GraphPad 5 (Prizm) and EC50's were determined with curve fitting function of GraphPad 5.

[5] = molecular target: T5, human PRLR ECD-Fc fusion protein; experiment: ELISA on ECD
Procedure: as §2

[6] = molecular target: T6, mouse PRLR on Baf3-mPRLR cells; experiment: cell-based or functional assay
[7] = molecular target: cyno PRLR on Baf3-cyPRLR cells (cyno); experiment: cell-based or functional assay
[8] = molecular target: T7, human PRLR on cells; experiment: cell-based or functional assay
[9] = molecular target: T8, mouse PRLR ECD-Fc fusion protein; experiment: ELISA on ECD
Procedure: as §2

Row | Binder | Kd [1] | koff [1] | kon [1] | Kd [2] | koff [2] | kon [2] | Kd [3] | koff [3] | kon [3] | EC50 [4] | EC50 [5] | Baf3-mPRLR proliferation IC50 [6] | Baf3-cyPRLR proliferation IC50 [7] | Baf3-hPRLR proliferation IC50 [8] | EC50 [9]
1 | Ab38 (antibody, human IgG1, kappa, humanized from Ab7; G1; also called Ab4 HC.1a and Ab4 LC.1) heavy: not shown light: DIVMTQTPLSLSVTPGQPASISCRSSQSLVHSNGNTYLHWYLQKPGQSPQLLIYKVSNRFSGVPDRFSGSGSGTDFTLKISRVEAEDVGVYYCSQSTHVPFTFGGGTKVEIKRTVAAPSVFIFPPSDEQLKSGTASVVCLLNNFYPREAKVQWKVDNALQSGNSQESVTEQDSKDSTYSLSSTLTLSKADYEKHKVYACEVTHQGLSSPVTKSFNRGEC | 6.22 nM | 0.000879 s⁻¹ | 141000 M⁻¹ s⁻¹ | 6.04 nM | 0.000756 s⁻¹ | 125000 M⁻¹ s⁻¹ | 994 nM | 0.0527 s⁻¹ | 53000 M⁻¹ s⁻¹ | 0.264 nM | 0.346 nM | > 30 mg/L | 0.25 mg/L | 0.42 mg/L | –
2 | Ab20 (antibody, human IgG1, kappa, V domains shown, humanized from Ab6; G1; also called Ab1 HC.1a and Ab1 LC.2) VH: EVQLVQSGAEVKKPGSSVKVSCKASGYTFTTYWMHWVRQAPGQGLEWIGEIDPSDSYSNYNQKFKDRATLTVDKSTSTAYMELSSLRSEDTAVYYCARNGGLGPAWFSYWGQGTLVTVSS VL: EIVMTQSPATLSVSPGERATLSCKASQYVGTAVAWYQQKPGQAPRLLIYSASNRYTGIPARFSGSGSGTEFTLTISSLQSEDFAVYYCQQYSSYPWTFGGGTKVEIKR | 2 nM | 0.00208 s⁻¹ | 1.04e+06 M⁻¹ s⁻¹ | – | – | – | 620 nM | – | – | 0.0711 nM | 0.0836 nM | > 30 mg/L | 0.5 mg/L | 0.2 mg/L | –
3 | Ab46 (antibody, human IgG1, kappa, V domains shown, humanized from Ab8; G1; also called Ab3 HC.1 and Ab3 LC.1b) VH: EVQLVQSGAEVKKPGASVKVSCKASGYTFTDYNIHWVRQAPGQGLEWMGYIYPNNDGTGYNQKFKSRVTMTTDTSTSTAYMELRSLRSDDTAVYYCARGDGNYVGDMDYWGQGTTVTVSS VL: DIQMTQSPSSLSASVGDRVTITCRASENIYSYLAWYQQKPGKAPKLLVYNAKTLAEGVPSRFSGSGSGTDFTLTISSLQPEDFATYYCQHHYATPFTFGQGTKLEIKR | – | – | – | – | – | – | – | – | – | 0.0814 nM | 0.0626 nM | > 30 mg/L | 1.72 mg/L | 0.3 mg/L | 0.568 nM
4 | Ab45 (antibody, human IgG1, kappa, V domains shown, humanized from Ab8; G1; also called Ab3 HC.1 and Ab3 LC.1a) VH: EVQLVQSGAEVKKPGASVKVSCKASGYTFTDYNIHWVRQAPGQGLEWMGYIYPNNDGTGYNQKFKSRVTMTTDTSTSTAYMELRSLRSDDTAVYYCARGDGNYVGDMDYWGQGTTVTVSS VL: DIQMTQSPSSLSASVGDRVTITCRASENIYSYLAWYQQKPGKPPKLLVYNAKTLAEGVPSRFSGSGSGTDFTLTISSLQPEDFATYYCQHHYATPFTFGQGTKLEIKR | – | – | – | – | – | – | – | – | – | 0.201 nM | 0.0684 nM | > 30 mg/L | 2.24 mg/L | 0.31 mg/L | 0.978 nM
